From PMC11387133 come the findings set out here.

For this assay, the target named is microtubules of purified bovine brain tubulin (bovine) (UniProt Q6B856). Briefly: optical trap rupture force assay; kinetochores held on beads by α-penta-His antibody; dynamic microtubules grown from coverslip-anchored GMPCPP seeds; force ramp 0.25 pN/s; 23 °C; BRB80.

“purified native K. marxianus kinetochores (from UniProt A0ABX6F0Z3 1-547; A0ABX6F2N8 1-203; A0ABX6ES48 1-179; A0ABX6ET36 1-377) (complex)” gave a median rupture force of 7.5 pN.

Take “purified native S. cerevisiae kinetochores (from UniProt P40568 1-576) (complex)”: the median rupture force stood at 7.2 pN.
